Test results as given in patent publication US20210024646A1 (published 2021).
Where a chain is given by its changes, count along the chain named. Values belong to the binder of their own block, whether it stands above or below them.

Key:
[1] = molecular target: T1, extracellular domain of human CD73 protein (CD73-ECD), C-terminus polyhistidine-tagged (UniProt P21589 27-547); experiment: ELISA
T1 chain: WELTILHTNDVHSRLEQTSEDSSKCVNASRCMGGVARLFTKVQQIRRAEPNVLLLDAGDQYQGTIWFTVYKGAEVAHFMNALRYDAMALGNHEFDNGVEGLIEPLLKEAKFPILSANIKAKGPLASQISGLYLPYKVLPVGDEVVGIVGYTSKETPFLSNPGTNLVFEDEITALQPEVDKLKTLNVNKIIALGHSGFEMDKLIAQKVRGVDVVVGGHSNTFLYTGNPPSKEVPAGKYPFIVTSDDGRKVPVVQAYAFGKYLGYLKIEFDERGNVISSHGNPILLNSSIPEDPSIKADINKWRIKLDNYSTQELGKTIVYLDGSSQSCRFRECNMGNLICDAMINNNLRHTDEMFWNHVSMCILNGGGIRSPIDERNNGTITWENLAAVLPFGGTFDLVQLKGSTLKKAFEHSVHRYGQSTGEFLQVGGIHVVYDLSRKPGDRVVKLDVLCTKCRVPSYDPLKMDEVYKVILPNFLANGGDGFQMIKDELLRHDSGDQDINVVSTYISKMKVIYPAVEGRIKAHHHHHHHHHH

[2] = molecular target: T1, extracellular domain of human CD73 …; experiment: enzyme inhibition; right table
[3] = molecular target: T2, Carbon-terminal polyhistidine-labeled recombinant cynomolgus monkey CD73 enzyme (cynomolgus monkey, UniProt A0A2K5V5U7 1-547); experiment: enzyme inhibition; right table
T2 chain: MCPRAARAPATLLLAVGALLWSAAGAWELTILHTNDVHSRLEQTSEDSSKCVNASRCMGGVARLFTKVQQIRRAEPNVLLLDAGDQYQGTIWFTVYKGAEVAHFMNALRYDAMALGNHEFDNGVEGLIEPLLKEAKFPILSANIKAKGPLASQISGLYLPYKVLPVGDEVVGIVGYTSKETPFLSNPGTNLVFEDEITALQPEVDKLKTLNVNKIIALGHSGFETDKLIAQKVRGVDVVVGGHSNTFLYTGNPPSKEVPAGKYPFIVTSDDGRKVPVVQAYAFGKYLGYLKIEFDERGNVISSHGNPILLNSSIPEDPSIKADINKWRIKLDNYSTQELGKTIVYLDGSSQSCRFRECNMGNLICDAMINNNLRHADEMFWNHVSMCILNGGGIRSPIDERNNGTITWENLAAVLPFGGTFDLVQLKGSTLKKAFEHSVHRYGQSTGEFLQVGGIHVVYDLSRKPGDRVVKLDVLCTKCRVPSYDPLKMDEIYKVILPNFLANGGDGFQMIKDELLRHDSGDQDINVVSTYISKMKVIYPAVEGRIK

[4] = molecular target: T3, CD73 on the surface of human tumor cells (human, UniProt P21589 27-549); experiment: FACS; NCI-H1299 cells, right table
T3 chain: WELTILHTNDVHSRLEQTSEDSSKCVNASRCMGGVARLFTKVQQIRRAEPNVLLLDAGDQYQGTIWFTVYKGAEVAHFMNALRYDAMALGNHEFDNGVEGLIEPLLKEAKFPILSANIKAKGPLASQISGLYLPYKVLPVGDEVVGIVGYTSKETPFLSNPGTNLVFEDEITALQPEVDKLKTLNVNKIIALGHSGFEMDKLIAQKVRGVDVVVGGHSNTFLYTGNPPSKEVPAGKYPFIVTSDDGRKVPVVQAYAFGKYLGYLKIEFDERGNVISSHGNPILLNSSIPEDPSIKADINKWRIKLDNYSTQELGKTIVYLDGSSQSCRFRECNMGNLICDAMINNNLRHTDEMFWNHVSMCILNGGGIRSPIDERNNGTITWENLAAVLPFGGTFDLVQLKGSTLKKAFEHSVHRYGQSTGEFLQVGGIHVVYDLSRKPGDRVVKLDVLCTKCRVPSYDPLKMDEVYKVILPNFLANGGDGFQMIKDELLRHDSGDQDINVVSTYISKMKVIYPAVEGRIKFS

[5] = molecular target: T3, CD73 on the surface of human tumor cells; experiment: FACS; MDA-MB-231 cells, right table
[6] = molecular target: T3, CD73 on the surface of human tumor cells; experiment: inhibition of cell-surface CD73 enzyme activity; right panel
[7] = molecular target: T1, extracellular domain of human CD73 …; experiment: enzyme inhibition; left table
[8] = molecular target: T2, Carbon-terminal polyhistidine-labeled …; experiment: enzyme inhibition; left table
[9] = molecular target: T3, CD73 on the surface of human tumor cells; experiment: FACS; NCI-H1299 cells, left table
[10] = molecular target: T3, CD73 on the surface of human tumor cells; experiment: FACS; MDA-MB-231 cells, left table
[11] = molecular target: T3, CD73 on the surface of human tumor cells; experiment: inhibition of cell-surface CD73 enzyme activity; left panel

B2: Hu002c-8 (antibody, V domains shown)
VH: QVQLVQSGAEVKKPGASVKVSCKASGYTLTSYWMHWVRQAPGQGLEWIGEINPSQGRSNYNEKFKSRVTLTVDRSTSTVYMELSSLRSEDTAVYYCARRGVSGNYFDYWGQGTLVTVSS
VL: DIQMTQSPSSLSASVGDRVTITCKASQDINTYLSWFQQKPGKSPKSLIYRSNILVSGVPSRFSGSGSGQDYTLTISSLQPEDFAIYYCLQYDEFPYTFGGGTKLEI
- EC50 [1]: 107 pM
- IC50 [7]: 25 pM
- IC50 [8]: 41 pM
- EC50 [9]: 910 pM
- EC50 [10]: 662 pM
- IC50 [11]: 223 pM

B3: Hu002c-11 (antibody, V domains shown)
VH: B2 VH with R67K
VL: DIQMTQSPSSLSASVGDRVTITCKASQDINTYLSWFQQKPGKSPKSLIYRSNILVSGVPSRFSGSGSGQDYTLTISSLQPEDFATYYCLQYDEFPYTFGGGTKLEIK
- EC50 [1]: 95 pM
- IC50 [2]: 60 pM
- IC50 [3]: 65 pM
- EC50 [4]: 774 pM
- EC50 [5]: 693 pM
- IC50 [6]: 445 pM

B4: Hu002c-2 (antibody, V domains shown)
VH: B2 VH with I48M, L70M, V72R, R74T
VL: B3 VL with S43A, G100Q
- EC50 [1]: 131 pM
- IC50 [7]: 42 pM
- IC50 [8]: 43 pM
- EC50 [9]: 874 pM
- EC50 [10]: 666 pM
- IC50 [11]: 478 pM

B5: Hu002c-4 (antibody, V domains shown)
VH: B2 VH with I48M, L70M, V72R, R74T
VL: B2 VL
- EC50 [1]: 106 pM
- IC50 [7]: 49 pM
- IC50 [8]: 47 pM
- EC50 [9]: 873 pM
- EC50 [10]: 696 pM
- IC50 [11]: 330 pM

B8: Hu002c-3 (antibody, V domains shown)
VH: B2 VH with I48M, L70M, V72R, R74T
VL: B3 VL
- EC50 [1]: 89 pM
- IC50 [7]: 36 pM
- IC50 [8]: 46 pM
- EC50 [9]: 902 pM
- EC50 [10]: 743 pM
- IC50 [11]: 535 pM

B9: Hu002c-6 (antibody, V domains shown)
VH: B2 VH
VL: B3 VL with S43A, G100Q
- EC50 [1]: 91 pM
- IC50 [7]: 64 pM
- IC50 [8]: 55 pM
- EC50 [9]: 836 pM
- EC50 [10]: 690 pM
- IC50 [11]: 410 pM

B10: Hu002c-7 (antibody, V domains shown)
VH: B2 VH
VL: B3 VL
- EC50 [1]: 98 pM
- IC50 [7]: 28 pM
- IC50 [8]: 52 pM
- EC50 [9]: 829 pM
- EC50 [10]: 659 pM
- IC50 [11]: 279 pM

B12: Hu002c-10 (antibody, V domains shown)
VH: B2 VH with R67K
VL: B3 VL with S43A, G100Q
- EC50 [1]: 93 pM
- IC50 [2]: 59 pM
- IC50 [3]: 59 pM
- EC50 [4]: 758 pM
- EC50 [5]: 702 pM
- IC50 [6]: 441 pM

B13: Hu001c-15 (antibody, V domains shown)
VH: QVQLVQSGAEVKKPGASVKVSCKTSGYTFTNYYIYWVRQAPGQRLEWMGWIYPGNLNIKYNEKFKGRVTITADTSASTAYMELSSLRSEDTAVYYCARDDNYAWFAYWGQGTLVTVSS
VL: DIQMTQSPSSLSASVGDRVTITCKASQDVSTAVAWYQQKPGKSPKLLIYWTNTRHTGVPSRFSGSGSGTDHTLTISSLQPEDFATYYCQQHYSTPFTFGQGTKLEIK
- EC50 [1]: 115 pM
- IC50 [7]: 40 pM
- IC50 [8]: 100 pM
- IC50 [2]: 20 pM
- IC50 [3]: 50 pM

The remaining lines, values ahead:

- EC50 [1]: 99 pM
- IC50 [2]: 68 pM
- IC50 [3]: 72 pM
- EC50 [4]: 860 pM
- EC50 [5]: 632 pM
- IC50 [6]: 327 pM
B1: Hu002c-16 (antibody, V domains shown)
VH: B2 VH with R38K, Q39K, R67K
VL: B2 VL

- EC50 [1]: 83 pM
- IC50 [2]: 57 pM
- IC50 [3]: 58 pM
- EC50 [4]: 820 pM
- EC50 [5]: 715 pM
- IC50 [6]: 498 pM
B6: Hu002c-12 (antibody, V domains shown)
VH: B2 VH with R67K
VL: B2 VL

- EC50 [1]: 101 pM
- IC50 [2]: 58 pM
- IC50 [3]: 56 pM
- EC50 [4]: 822 pM
- EC50 [5]: 642 pM
- IC50 [6]: 437 pM
B7: Hu002c-14 (antibody, V domains shown)
VH: B2 VH with R38K, Q39K, R67K
VL: B3 VL with S43A, G100Q

- EC50 [1]: 104 pM
- IC50 [2]: 75 pM
- IC50 [3]: 74 pM
- EC50 [4]: 804 pM
- EC50 [5]: 717 pM
- IC50 [6]: 591 pM
B11: Hu002c-15 (antibody, V domains shown)
VH: B2 VH with R38K, Q39K, R67K
VL: B3 VL
